Measured values published in the Human Domainome abundance scans (Beltran et al. 2025).

B1: WW domain-binding protein 4, residues 8 to 43; numbered along this chain, O75554 (parent)
chain: QPKKFCDYCKCWIADNRPSVEFHERGKNHKENVAKR

Variants of: B1
Assay: abundance fitness (aPCA) (normalised: wild type 0, dead -1); higher = more abundant; growth selection in yeast, the domain comes from the species named
Settings: Homo sapiens

Abundance fitness, by site and new letter:
R36: S -0.032; K 0.058; W -0.29; M -0.267; Q -0.304; C 0.005; G 0.16; E 0.245; A 0.023; P 0.211
K35: E -0.099; W 0.017; C -0.951; V -0.129; P -0.002; R 0.004; S -0.034; G 0; Q -0.093; L -0.212; M -0.092; N -0.085; T -0.043; D -0.057; A 0.216
A34: T 0.022; V -0.088; R -0.11; W -0.232; S 0.055
